Assay results taken from patent US20220064329A1 (Novo Nordisk, published 2022).
Numbering of substitutions follows the chain as printed.

T1: recombinant human activated Factor VII (FVIIa) (human, UniProt P08709 61-212; P08709 213-466, Gla domain: ten glutamate residues may be gamma-carboxylated)
T1 construct: two-chain form after cleavage between Arg152 and Ile153; light chain (Gla, EGF domains) and heavy chain (protease domain) tethered by a disulfide bond; also called rFVIIa; human FVIIa
T1 sequence 1: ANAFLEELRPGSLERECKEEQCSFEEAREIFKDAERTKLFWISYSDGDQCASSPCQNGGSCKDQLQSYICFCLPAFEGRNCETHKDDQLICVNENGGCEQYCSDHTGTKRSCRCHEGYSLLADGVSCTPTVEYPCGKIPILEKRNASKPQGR
T1 sequence 2: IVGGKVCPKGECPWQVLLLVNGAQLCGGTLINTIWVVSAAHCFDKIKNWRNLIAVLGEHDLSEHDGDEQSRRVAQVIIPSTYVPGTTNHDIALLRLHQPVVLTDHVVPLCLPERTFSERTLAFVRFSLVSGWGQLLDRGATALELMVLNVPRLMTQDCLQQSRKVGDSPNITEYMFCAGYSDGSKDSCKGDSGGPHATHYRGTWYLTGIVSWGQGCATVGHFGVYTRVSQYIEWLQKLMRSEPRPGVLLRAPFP

T2: recombinant human activated Factor VII (FVIIa) (human, UniProt P08709 61-212; P08709 213-466, ten glutamate residues of the Gla domain may be gamma-carboxylated)
T2 sequence 1: T1 sequence 1
T2 sequence 2: T1 sequence 2

B1: mAb0129 (antibody, human IgG4 S228P, kappa, V domains shown)
VH: DVQLQESGPGLVEPSQTLSLTCTVSGYSITSDSAWSWIRQFPGKKLEWMGYIQYSGSTNYNPSLKSRVTISRDTSKNQFSLKLSSVTAEDTAVYYCARSVNYYGNSFAVGYWGQGTSVTVSS
VL: EIVLTQSPATLSLSPGERATLSCRASQGISDYLHWYQQKPGEAPRLLIKYASQPATGIPARFSGSGSGTDFTLTISSLEPEDVGVYYCQNGHSFPLTFGAGTKLELKR
notes: humanized 11F2 variant, first round
B2: mAb0130 (antibody, human IgG4 S228P, kappa, V domains shown)
VH: B1 VH
VL: B1 VL with A51T, V83F
notes: as for B1
B3: mAb0709(OA) (antibody, human IgG4 S228P, kappa)
heavy: QVQLQESGPGLVKPSQTLSLTCTVSGYSISSDSAWSWIRQPPGKGLEWIGYIQYSGSTNYNPSLKSRVTISRDTSKNQFSLKLSSVTAADTAVYYCARSVNYYGNSFAVGPWGQGTLVTVSSASTKGPSVFPLAPCSRSTSESTAALGCLVKDYFPEPVTVSWNSGALTSGVHTFPAVLQSSGLYSLSSVVTVPSSSLGTKTYTCNVDHKPSNTKVDKRVESKYGPPCPPCPAPEFLGGPSVFLFPPKPKDTLMISRTPEVTCVVVDVSQEDPEVQFNWYVDGVEVHNAKTKPREEQFNSTYRVVSVLTVLHQDWLNGKEYKCKVSNKGLPSSIEKTISKAKGQPREPQVYTLPPSQEEMTKNQVSLSCAVKGFYPSDIAVEWESNGQPENNYKTTPPVLDSDGSFFLVSRLTVDKSRWQEGNVFSCSVMHEALHNHYTQKSLSLSLGK
light: EIVLTQSPATLSLSPGERATLSCRASQGISDYLHWYQQKPGEAPRLLIKYTSQPATGIPARFSGSGSGTDFTLTISSLEPEDFAVYYCQNGHSFPLTFGQGTKLEIKRTVAAPSVFIFPPSDEQLKSGTASVVCLLNNFYPREAKVQWKVDNALQSGNSQESVTEQDSKDSTYSLSSTLTLSKADYEKHKVYACEVTHQGLSSPVTKSFNRGEC
chain: not shown
notes: one-armed (OA) antibody, constant domain type F (knob-in-hole)
B4: biAb0001 (bispecific antibody, human IgG4 S228P, kappa)
heavy 1: B3 heavy with P111Y, S368T, A370L, F407L, V409Y, R411K
light 1: B3 light
heavy 2: not shown
light 2: DIVMTQTPLSSPVTLGQPASISCRSSQSLVHRQGNTYFHWLQQRPGQPPRLLIYKVSNRFSGVPDRFSGSGAGTDFTLKISRVEAEDVGVYYCSQSTHVPYTFGQGTKLEIKRTVAAPSVFIFPPSDEQLKSGTASVVCLLNNFYPREAKVQWKVDNALQSGNSQESVTEQDSKDSTYSLSSTLTLSKADYEKHKVYACEVTHQGLSSPVTKSFNRGEC
notes: also called anti-FVII(a)/anti-TLT-1 bispecific antibody of mAb0865 and mAb1076
B5: mAb0705(OA) (antibody, human IgG4 S228P, kappa)
heavy: B3 heavy with P111Y
light: B3 light
chain: not shown
notes: one-armed (OA) antibody, constant domain type F (knob-in-hole); also called monovalent humanized 11F2
B6: mAb0707(OA) (antibody, human IgG4 S228P, kappa)
heavy: B3 heavy with K13E
light: B3 light
chain: not shown
notes: as for B3
B7: mAb0706(OA) (antibody, human IgG4 S228P, kappa)
heavy: B3 heavy with K13E, P111Y
light: B3 light with E42Q
chain: not shown
notes: as for B3
B8: mAb0710(OA) (antibody, human IgG4 S228P, kappa)
heavy: B3 heavy with P41F
light: B3 light with E42Q
chain: not shown
notes: as for B3
B9: mAb0077(OA) (antibody, human IgG4 S228P, kappa)
heavy: not shown
light: DIVMTQSPATLSVTAGDRVSLSCRASQGISDYLHWYQQKSHESPRLLIKYTSQPVSGIPSRFSGSGSGSEFTLSINSVEPEDVGVYYCQNGHSFPLTFGAGTKLELKRTVAAPSVFIFPPSDEQLKSGTASVVCLLNNFYPREAKVQWKVDNALQSGNSQESVTEQDSKDSTYSLSSTLTLSKADYEKHKVYACEVTHQGLSSPVTKSFNRGEC
chain: VESKYGPPCPPCPAPEFLGGPSVFLFPPKPKDTLMISRTPEVTCVVVDVSQEDPEVQFNWYVDGVEVHNAKTKPREEQFNSTYRVVSVLTVLHQDWLNGKEYKCKVSNKGLPSSIEKTISKAKGQPREPQVYTLPPSQEEMTKNQVSLTCLVKGFYPSDIAVEWESNGQPENNYKTTPPVLDSDGSFLLYSKLTVDKSRWQEGNVFSCSVMHEALHNHYTQKSLSLSLGK
notes: one-armed (OA) antibody, constant domain type E (Duobody); murine VL/VH; also called monovalent 11F2
B10: biAb0245 (bispecific antibody, human IgG4 S228P, kappa)
heavy 1: B3 heavy with Q1D, A108W, G110D, S368T, A370L, F407L, V409Y, R411K
light 1: B9 light
heavy 2: not shown
light 2: B4 light 2
notes: also called anti-FVII(a)/anti-TLT-1 bispecific antibody of mAb0873 and mAb1076
B11: mAb0138(OA) (antibody, human IgG4 S228P, kappa)
heavy: not shown
light: B3 light with F83V, A84G, Q100A, I106L
chain: B9 chain
notes: one-armed (OA) antibody, constant domain type E
B12: mAb0099(OA) (antibody, human IgG4 S228P, kappa)
heavy: DVQLQESGPGLVEPSQSLSLTCTVTGYSITSDSAWSWIRQFPGNKLEWMGYIQYSGSTNYNPSLKSRISVTRDTSKNQFFLRLSSVTAEDTATYYCTRSVNYYGNSFAVGYWGQGTSVTVSSASTKGPSVFPLAPCSRSTSESTAALGCLVKDYFPEPVTVSWNSGALTSGVHTFPAVLQSSGLYSLSSVVTVPSSSLGTKTYTCNVDHKPSNTKVDKRVESKYGPPCPPCPAPEFLGGPSVFLFPPKPKDTLMISRTPEVTCVVVDVSQEDPEVQFNWYVDGVEVHNAKTKPREEQFNSTYRVVSVLTVLHQDWLNGKEYKCKVSNKGLPSSIEKTISKAKGQPREPQVYTLPPSQEEMTKNQVSLSCAVKGFYPSDIAVEWESNGQPENNYKTTPPVLDSDGSFFLVSRLTVDKSRWQEGNVFSCSVMHEALHNHYTQKSLSLSLGK
light: B9 light
chain: not shown
B13: mAb0141(OA) (antibody, human IgG4 S228P, kappa)
heavy: not shown
light: B3 light with F83V, A84G, Q100A, I106L
chain: B9 chain
notes: as for B11
B14: mAb0142(OA) (antibody, human IgG4 S228P, kappa)
heavy: not shown
light: B3 light with D31S, F83V, A84G, Q100A, I106L
chain: B9 chain
notes: as for B11
B15: mAb0143(OA) (antibody, human IgG4 S228P, kappa)
heavy: not shown
light: B3 light with A84G, Q100A, I106L
chain: B9 chain
notes: as for B11
B16: mAb0140(OA) (antibody, human IgG4 S228P, kappa)
heavy: not shown
light: B3 light with F83V, A84G, Q100A, I106L
chain: B9 chain
notes: as for B11

Columns and labels:
[1] = biological target: T1, recombinant human activated Factor VII …; experiment: Bio-Layer Interferometry (Fortebio), antibody on anti-human tips, FVIIa 25-200 nM
Protocol: All steps were performed in running buffer (20 mM HEPES buffer (pH 7.4), 150 mM NaCl, 5 mM CaCl2, 0.03% Tween 20, 1 mg/ml IgG-free BSA) at […] Antibodies were captured on anti-human tips (AHC, Fortebio) for 3 min at a concentration of 10 ug/ml. This was followed by a 3 min incubation to establish a baseline. Following this, association was monitored for 3 min using four different concentrations of VIIa (25 nm, 50 nM, 100 nM, and 200 nM), followed by a 3 mi dissociation. Sensorgrams were analysed using Fortebio data analysis software.

[2] = biological target: T2, recombinant human activated Factor VII …; experiment: cell-based or functional assay
[3] = biological target: T2, recombinant human activated Factor VII …; experiment: SPR (Biacore)

Kd [1] [nM]	AT inhibition (kinh %) [2] [%]	TGT activity (%% FVIIa) [2] [%]	Kd [3] [nM]	Binder
2.2	–	–	–	B1
1.8	–	–	–	B2
–	137	103	0.104	B3
–	–	–	0.06	B4
–	129	100	0.0505	B5
–	129	102	0.106	B6
–	132	101	0.0542	B7
–	136	102	0.128	B8
–	119	103	0.041	B9
–	–	–	600	B10
–	105	99	0.13	B11
–	117	98	0.12	B12
–	109	103	0.078	B13
–	114	106	1	B14
–	109	107	0.079	B15
–	106	100	0.083	B16
